Changes are numbered by the printed parent chain. Numbers in names are those of the source. Values belong to the binder of their own block, whether it stands above or below them.
Columns and labels:
ヒトFcγRIIb [1] = target: T1, ヒトFcγRIIb (human, UniProt P31994 43-217); assay: SPR, KD
T1 construct: extracellular domain; for the crystals it was expressed with kifunensine and its N-glycans trimmed with Endo F1; also called FcγRIIb細胞外領域
T1 sequence (looked up): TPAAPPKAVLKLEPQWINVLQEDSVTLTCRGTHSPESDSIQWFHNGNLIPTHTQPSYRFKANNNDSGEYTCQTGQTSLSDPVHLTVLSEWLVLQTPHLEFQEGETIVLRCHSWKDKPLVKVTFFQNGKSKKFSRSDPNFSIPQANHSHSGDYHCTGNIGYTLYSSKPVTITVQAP

ヒトFcγRIIb [2] = target: T1, ヒトFcγRIIb; assay: SPR; KD for FcγRIIaR divided by KD for FcγRIIb
ヒトFcγRIIb [3] = target: T1, ヒトFcγRIIb; assay: SPR, KD; reference IL6R-BP230/IL6R-L
ヒトFcγRIa = ヒトFcγRIa (human, UniProt P12314 16-292); assay: SPR, KD
ヒトFcγRIIa (H) = target: T2, ヒトFcγRIIa (H) (human, UniProt P12318 34-217); assay: SPR, KD
T2 construct: extracellular domain; also called FcγRIIa H型
T2 sequence (looked up): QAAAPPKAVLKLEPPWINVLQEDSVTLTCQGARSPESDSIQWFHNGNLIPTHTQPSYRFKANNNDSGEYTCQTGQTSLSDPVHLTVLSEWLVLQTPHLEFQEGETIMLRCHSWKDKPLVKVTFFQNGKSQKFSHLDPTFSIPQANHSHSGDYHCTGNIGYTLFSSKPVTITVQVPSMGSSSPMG

Sequence of ヒトFcγRIa (P12314 16-292): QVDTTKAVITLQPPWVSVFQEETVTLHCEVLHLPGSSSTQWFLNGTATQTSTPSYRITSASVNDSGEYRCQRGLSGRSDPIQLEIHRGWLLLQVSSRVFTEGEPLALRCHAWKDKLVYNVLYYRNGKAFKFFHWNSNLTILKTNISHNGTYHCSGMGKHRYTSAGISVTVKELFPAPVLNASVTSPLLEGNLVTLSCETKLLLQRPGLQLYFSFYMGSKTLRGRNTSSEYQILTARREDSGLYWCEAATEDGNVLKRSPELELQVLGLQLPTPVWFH

B1: IL6R-BP423/IL6R-L (antibody, human IgG1)
heavy: QVQLQESGPGLVKPSETLSLTCAVSGHSISHDHAWSWVRQPPGEGLEWIGFISYSGITNYNPSLQGRVTISRDNSKNTLYLQMNSLRAEDTAVYYCARSLARTTAMDYWGEGTLVTVSSASTKGPSVFPLAPSSKSTSGGTAALGCLVKDYFPEPVTVSWNSGALTSGVHTFPAVLQSSGLYSLSSVVTVPSSSLGTQTYICNVNHKPSNTKVDKKVEPKSCDKTHTCPPCPAPDLLGDDSVFLFPPKPKDTLMISRTPEVTCVVVDVAEEDGEVKFNWYVDGVEVHNAKTKPREEQYNSTYRVVSVLTVLHQDWLNGKEYKCKVSNKALPRPIEKTISKAKGQPREPQVYTLPPSRDELTKNQVSLTCLVKGFYPSDIAVEWESNGQPENNYKTTPPVLDSDGSFFLYSKLTVDKSRWQQGNVFSCSVMHEALHNHYTQESLSLSP
light: DIQMTQSPSSLSASVGDRVTITCRASQDISSYLNWYQQKPGKAPKLLIYYTSRLHSGVPSRFSGSGSGTDFTFTISSLQPEDIATYYCQQGNTLPYTFGQGTKVEIK
binding result (ヒトFcγRIIb [1]): binds

B2: IL6R-BP479/IL6R-L (antibody)
chain 1: B1 heavy with V266I, V268L, R332A
chain 2: not shown
KD (IIaR)/KD (IIb) (ヒトFcγRIIb [2]): 16.1 ratio

B3: IL6R-BP493/IL6R-L (antibody)
chain 1: B1 heavy with D235E, D239G, V266I, Y298D, R332A
chain 2: not shown
KD (IIaR)/KD (IIb) (ヒトFcγRIIb [2]): 52.1 ratio

B4: IL6R-BP231/IL6R-L (antibody)
chain 1: B1 heavy with D235E, A269S, E270D, Y298D
chain 2: not shown
KD (IIaR)/KD (IIb) (ヒトFcγRIIb [2]): 32.2 ratio

B5: IL6R-BP473/IL6R-L (antibody)
chain 1: B1 heavy with A269S, E270D, Y298D, A329G
chain 2: not shown
fold enhancement of binding against IL6R-BP230/IL6R-L (ヒトFcγRIIb [3]): 1.2 fold

B6: IL6R-BP234/IL6R-L (antibody)
chain 1: B1 heavy with L236Y, A269Q, E270D, Y298D, K328D, R332K
chain 2: not shown
KD (IIaR)/KD (IIb) (ヒトFcγRIIb [2]): 10 ratio

B7: IL6R-G4d/IL6R-L (antibody, human IgG4 S228P)
heavy: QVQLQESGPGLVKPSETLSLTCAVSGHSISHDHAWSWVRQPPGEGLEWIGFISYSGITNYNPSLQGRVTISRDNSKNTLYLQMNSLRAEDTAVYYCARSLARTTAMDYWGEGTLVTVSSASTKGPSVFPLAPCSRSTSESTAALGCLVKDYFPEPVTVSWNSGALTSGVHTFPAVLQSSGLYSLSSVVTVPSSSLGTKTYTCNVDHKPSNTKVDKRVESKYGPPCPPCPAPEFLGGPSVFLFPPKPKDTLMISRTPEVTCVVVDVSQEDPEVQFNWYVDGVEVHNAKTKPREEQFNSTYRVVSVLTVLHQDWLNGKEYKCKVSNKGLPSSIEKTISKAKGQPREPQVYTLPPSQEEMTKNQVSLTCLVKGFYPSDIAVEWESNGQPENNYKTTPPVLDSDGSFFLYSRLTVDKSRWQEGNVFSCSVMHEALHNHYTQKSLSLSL
light: B1 light
binding result (ヒトFcγRIa): binds
binding result (ヒトFcγRIIa (H)): binds

B8: IL6R-BP459/IL6R-L (antibody, human IgG1)
heavy: B1 heavy with P398R
light: B1 light
binding result (ヒトFcγRIIb [1]): binds

B9: IL6R-BP458/IL6R-L (antibody, human IgG1)
heavy: B1 heavy with P398Q
light: B1 light
binding result (ヒトFcγRIIb [1]): binds

B10: IL6R-BP267/IL6R-LにS267Eの改変が加えられた改変体 (antibody, human IgG1)
heavy: B1 heavy with A269E, R332A
light: B1 light
notes: also called IL6R-BP267 + S267E
binding result (ヒトFcγRIIb [1]): binds

B11: IL6R-BP267/IL6R-LにV266Fの改変が加えられた改変体 (antibody, human IgG1)
heavy: B1 heavy with V268F, A269S, R332A
light: B1 light
notes: also called IL6R-BP267 + V266F
binding result (ヒトFcγRIIb [1]): binds

Other lines, results leading:

binding result (ヒトFcγRIIb [1]): binds
B12: IL6R-BP448/IL6R-L (antibody, human IgG1)
heavy: B1 heavy with P398D
light: B1 light

binding result (ヒトFcγRIIb [1]): binds
B13: IL6R-BP449/IL6R-L (antibody, human IgG1)
heavy: B1 heavy with P398E
light: B1 light

binding result (ヒトFcγRIIb [1]): binds
B14: IL6R-BP267/IL6R-LにV266Mの改変が加えられた改変体 (antibody, human IgG1)
heavy: B1 heavy with V268M, A269S, R332A
light: B1 light
notes: also called IL6R-BP267 + V266M

binding result (ヒトFcγRIIb [1]): binds
B15: IL6R-BP453/IL6R-L (antibody, human IgG1)
heavy: B1 heavy with P398I
light: B1 light

binding result (ヒトFcγRIIb [1]): binds
B16: IL6R-BP267/IL6R-LにE269Dの改変が加えられた改変体 (antibody, human IgG1)
heavy: B1 heavy with A269S, E271D, R332A
light: B1 light
notes: also called IL6R-BP267 + E269D

binding result (ヒトFcγRIIb [1]): binds
B17: IL6R-BP454/IL6R-L (antibody, human IgG1)
heavy: B1 heavy with P398K
light: B1 light

binding result (ヒトFcγRIIb [1]): binds
B18: IL6R-BP456/IL6R-L (antibody, human IgG1)
heavy: B1 heavy with P398M
light: B1 light

binding result (ヒトFcγRIa): binds
binding result (ヒトFcγRIIa (H)): binds
B19: IL6R-BP253/IL6R-L (antibody, human IgG1)
heavy: B1 heavy with D235E, D239G, D240P, A269E, E270H, G273P, L330F, R332A
light: B1 light
notes: comparison antibody with the known FcγRIIb-enhancing substitutions

binding result (ヒトFcγRIIb [1]): binds
B20: IL6R-BP455/IL6R-L (antibody, human IgG1)
heavy: B1 heavy with P398L
light: B1 light

binding result (ヒトFcγRIIb [1]): binds
B21: IL6R-BP450/IL6R-L (antibody, human IgG1)
heavy: B1 heavy with P398F
light: B1 light

binding result (ヒトFcγRIIb [1]): binds
B22: IL6R-BP267/IL6R-LにS267Aの改変が加えられた改変体 (antibody, human IgG1)
heavy: B1 heavy with R332A
light: B1 light
notes: also called IL6R-BP267 + S267A

binding result (ヒトFcγRIIb [1]): binds
B23: IL6R-BP267/IL6R-LにS267Gの改変が加えられた改変体 (antibody, human IgG1)
heavy: B1 heavy with A269G, R332A
light: B1 light
notes: also called IL6R-BP267 + S267G

binding result (ヒトFcγRIIb [1]): binds
B24: IL6R-BP464/IL6R-L (antibody, human IgG1)
heavy: B1 heavy with P398Y
light: B1 light

binding result (ヒトFcγRIIb [1]): binds
B25: IL6R-BP267/IL6R-LにV264Iの改変が加えられた改変体 (antibody, human IgG1)
heavy: B1 heavy with V266I, A269S, R332A
light: B1 light
notes: also called IL6R-BP267 + V264I
